Assay results as given in paper PMC5945891, “Proteomics of Stored Red Blood Cell Membrane and Storage-Induced Microvesicles Reveals the Association of Flotillin-2 With Band 3 Complexes” (Frontiers in Physiology, 2018).

B1: band 3 (natural protein, human (endogenous in RBCs), UniProt P02730 1-911, looked up)
chain: MEELQDDYEDMMEENLEQEEYEDPDIPESQMEEPAAHDTEATATDYHTTSHPGTHKVYVELQELVMDEKNQELRWMEAARWVQLEENLGENGAWGRPHLSHLTFWSLLELRRVFTKGTVLLDLQETSLAGVANQLLDRFIFEDQIRPQDREELLRALLLKHSHAGELEALGGVKPAVLTRSGDPSQPLLPQHSSLETQLFCEQGDGGTEGHSPSGILEKIPPDSEATLVLVGRADFLEQPVLGFVRLQEAAELEAVELPVPIRFLFVLLGPEAPHIDYTQLGRAAATLMSERVFRIDAYMAQSRGELLHSLEGFLDCSLVLPPTDAPSEQALLSLVPVQRELLRRRYQSSPAKPDSSFYKGLDLNGGPDDPLQQTGQLFGGLVRDIRRRYPYYLSDITDAFSPQVLAAVIFIYFAALSPAITFGGLLGEKTRNQMGVSELLISTAVQGILFALLGAQPLLVVGFSGPLLVFEEAFFSFCETNGLEYIVGRVWIGFWLILLVVLVVAFEGSFLVRFISRYTQEIFSFLISLIFIYETFSKLIKIFQDHPLQKTYNYNVLMVPKPQGPLPNTALLSLVLMAGTFFFAMMLRKFKNSSYFPGKLRRVIGDFGVPISILIMVLVDFFIQDTYTQKLSVPDGFKVSNSSARGWVIHPLGLRSEFPIWMMFASALPALLVFILIFLESQITTLIVSKPERKMVKGSGFHLDLLLVVGMGGVAALFGMPWLSATTVRSVTHANALTVMGKASTPGAAAQIQEVKEQRISGLLVAVLVGLSILMEPILSRIPLAVLFGIFLYMGVTSLSGIQLFDRILLLFKPPKYHPDVPYVKRVKTWRMHLFTGIQIICLAVLWVVKSTPASLALPFVLILTVPLRRVLLPLIFRNVELQCLDADDAKATFDEEEGRDEYDEVAMPV
notes: band 3 anion transporter of the human red blood cell membrane; bait captured with the anti-band 3 antibodies BRIC 6 and BRIC 170; Captured as native 'band 3 complexes' with no distinction between ankyrin, junctional and free complexes; also called band 3 complexes; source: endogenous, membranes of stored human RBCs and storage-induced microvesicles, 1% deoxycholate extract

Legend:
[1] = target: the molecule itself; assay: SDS-PAGE; band around 220 kDa on Coomassie-stained SDS-PAGE of total membrane proteins and co-IP eluates from RBCs and MVs
band 3 [2] = target: B1; assay: co-IP; band 3 complexes captured from 1% deoxycholate extracts of storage-induced microvesicles (bags D-F; compared with RBCs of the same bags) on beads coated with BRIC 6 and BRIC 170; eluates analysed by western blot for flotillin-2, densitometry; conditions: partners not purified
band 3 [3] = target: B1; assay: co-IP; band 3 complexes captured from 1% deoxycholate extracts of RBC membranes (short- and long-stored ECs, bags A-C) on beads coated with BRIC 6 and BRIC 170; eluates analysed by western blot (ADSL, α-adducin, flotillin-2), densitometry relative to Ponceau loading; conditions: partners not purified

Row | fold decrease of the amount in band 3 complexes, MVs against RBCs (band 3 [2]) | fold change of the amount in band 3 complexes, long-stored against short-stored ECs (band 3 [3]) | Binder | stoichiometry N [1]
1 |  |  | B1 | 2
2 | 1.3 fold | 1.6 fold | Flotillin-2 (natural protein, human (endogenous in RBCs), UniProt Q14254 1-428, looked up, flotillin-2, human, SwissProt Q14254; source: endogenous, membranes of stored human RBCs and storage-induced microvesicles, 1% deoxycholate extract) MGNCHTVGPNEALVVSGGCCGSDYKQYVFGGWAWAWWCISDTQRISLEIMTLQPRCEDVETAEGVALTVTGVAQVKIMTEKELLAVACEQFLGKNVQDIKNVVLQTLEGHLRSILGTLTVEQIYQDRDQFAKLVREVAAPDVGRMGIEILSFTIKDVYDKVDYLSSLGKTQTAVVQRDADIGVAEAERDAGIREAECKKEMLDVKFMADTKIADSKRAFELQKSAFSEEVNIKTAEAQLAYELQGAREQQKIRQEEIEIEVVQRKKQIAVEAQEILRTDKELIATVRRPAEAEAHRIQQIAEGEKVKQVLLAQAEAEKIRKIGEAEAAVIEAMGKAEAERMKLKAEAYQKYGDAAKMALVLEALPQIAAKIAAPLTKVDEIVVLSGDNSKVTSEVNRLLAELPASVHALTGVDLSKIPLIKKATGVQV | 
